T1: recombinant human BCMA (Cat. No. 193-BC, R&D Systems) (human, UniProt Q02223 1-54)
T1 sequence (looked up): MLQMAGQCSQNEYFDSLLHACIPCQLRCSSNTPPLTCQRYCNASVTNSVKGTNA

T2: BCMA expressed on multiple myeloma cell lines H929 and MM1S (UniProt Q02223 1-184, limits assumed)
T2 construct: whole, on cells; Endogenous BCMA on tumour cell lines; also called BMCA; cell surface BCMA
T2 sequence (looked up): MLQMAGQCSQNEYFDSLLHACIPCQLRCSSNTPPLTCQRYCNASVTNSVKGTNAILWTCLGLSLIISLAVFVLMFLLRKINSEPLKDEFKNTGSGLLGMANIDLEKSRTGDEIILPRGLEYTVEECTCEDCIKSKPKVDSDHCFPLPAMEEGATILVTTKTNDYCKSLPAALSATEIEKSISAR


Key:
[1] = target: BCMA expressed on multiple myeloma cell lines H929 and MM1S (UniProt Q02223); experiment: flow cytometry, H929 cells, negative control without VH-Fc protein [B), H929 table]
[2] = target: BCMA expressed on multiple myeloma cell lines H929 and MM1S (UniProt Q02223); experiment: flow cytometry, MM1S cells, negative control without VH-Fc protein [B), MM1S table]
[3] = target: BCMA expressed on multiple myeloma cell lines H929 and MM1S (UniProt Q02223); experiment: flow cytometry, H929 cells, negative control without VH domain [B), H929 table]
[4] = target: BCMA expressed on multiple myeloma cell lines H929 and MM1S (UniProt Q02223); experiment: flow cytometry, MM1S cells, negative control without VH domain [B), MM1S table]
[5] = target: T1, recombinant human BCMA (Cat. No. …); experiment: BLI (Octet), BCMA fixed on Anti-Fc Biosensor, antibody 0.078 to 5 nM
Description: Among the selected 20 clones, Clones MN1, MN5, MN7, and MN8 which were expected to have excellent binding capacity to BCMA-expressing tumor cell lines were purified. Quantitative binding capacity (affinity) of Clones MN1, MN5, MN7, and MN8 to recombinant human BCMA was measured using the OCTET system (Pall Corporation). BCMA (Cat. No. 193-BC, R&D Systems) purified from HEK293 cells was fixed to Biosensor (Pall Corporation). Then, the MN1, MN5, MN7, or MN8 antibody diluted sequentially in Kinetic bfr (Pall Corporation) was allowed to associate in a concentration range of 0.078 nM to 5 nM for 120 seconds, and was allowed to dissociate by performing flowing at a flow rate of 30 μl/min for 1,800 seconds. Dissociation of the BCMA-bound antibody was induced by flowing 10 mM glycine-HCl pH 1.5 at a flow rate of 30 μl/min for 30 seconds (Table 3). The binding affinity was obtained as the kinetic parameters (Kon and Koff) and the equilibrium dissociation constant (KD) using the Octet system data analysis software (Table 4).

[6] = target: T2, BCMA expressed on multiple myeloma cell …; experiment: flow cytometry, H929 cells, purified VH domain (text: 1 uM); control iso_anti-His-PE Mean 13.5 [B), H929 table]
Description: (§1) Multiple myeloma cells in culture were placed in a 50 ml tube and centrifuged at 1,000 rpm for 5 minutes at room temperature. Then, the culture solution was discarded and washing with PBS was performed once. The resultant was suspended in FACS buffer and then transferred to a round bottom tube. Centrifugation was performed at 2,000 rpm for 3 minutes at room temperature. The supernatant was discarded and loosening was performed with FACS buffer so as to obtain 1×10⁶ cells/100 μl. Then, 1 uM of the purified candidate antibody was added thereto at 4° C.
(§2) As a control, FACS buffer containing no candidate antibody was added. After 30 minutes, washing with FACS buffer was performed twice. […] The cells were collected by centrifugation at 2,000 rpm for 3 minutes, and then 200 μl of fixation buffer was added thereto. The cells were resuspended and measured by FACS Calibur™. The results are illustrated in FIGS. 4 and 5.

[7] = target: T2, BCMA expressed on multiple myeloma cell …; experiment: flow cytometry, MM1S cells, purified VH domain (text: 1 uM); control iso_anti-His-PE Mean 4.19 [B), MM1S table]
Description: as §1, §2

[8] = target: T2, BCMA expressed on multiple myeloma cell …; experiment: flow cytometry, H929 cells, purified VH domain (text: 1 uM); control iso_anti-His-PE Median 10.8 [B), H929 table]
Description: as §1, §2

[9] = target: T2, BCMA expressed on multiple myeloma cell …; experiment: flow cytometry, MM1S cells, purified VH domain (text: 1 uM); control iso_anti-His-PE Median 3.74 [B), MM1S table]
Description: as §1, §2

[10] = target: T2, BCMA expressed on multiple myeloma cell …; experiment: flow cytometry, H929 cells, purified VH-Fc protein, 100nM per the sample name; control anti-hFc-PE Mean 5.41 [B), H929 table]
[11] = target: T2, BCMA expressed on multiple myeloma cell …; experiment: flow cytometry, MM1S cells, purified VH-Fc protein, 100nM per the sample name; control anti-hFc-PE Mean 2.81 [B), MM1S table]
[12] = target: T2, BCMA expressed on multiple myeloma cell …; experiment: flow cytometry, H929 cells, purified VH-Fc protein, 100nM per the sample name; control anti-hFc-PE Median 4.82 [B), H929 table]
[13] = target: T2, BCMA expressed on multiple myeloma cell …; experiment: flow cytometry, MM1S cells, purified VH-Fc protein, 100nM per the sample name; control anti-hFc-PE Median 2.50 [B), MM1S table]

Molecule | Kd [5] [nM] | Mean FL2-H [6] | Mean FL2-H [7] | Median FL2-H [8] | Median FL2-H [9] | Mean FL2-H [10] | Mean FL2-H [11] | Median FL2-H [12] | Median FL2-H [13] | further results
anti-hFc-PE (antibody) | – | – | – | – | – | – | – | – | – | Mean FL2-H [1]: 5.41; Median FL2-H [1]: 4.82; Mean FL2-H [2]: 2.81; Median FL2-H [2]: 2.5
iso_anti-His-PE (antibody) | – | – | – | – | – | – | – | – | – | Mean FL2-H [3]: 13.5; Median FL2-H [3]: 10.8; Mean FL2-H [4]: 4.19; Median FL2-H [4]: 3.74
Clone MN1 (VH domain) (VHH, Single-domain antibody: a VH domain from a synthetic phage library, not camelid; Expressed in E. coli) VHH: EVQLVESGGGLVQPGGSLRLSCAASGFTFTAYDMGWVRQAPGKGPEWVSLISSDSGDTWYDDSVKGRFTISRDNSKNTLYLQMNSLRAEDTAVYYCARLGAYSTTYDYWGQGTLVTVSS | 0.7 | 62.9 | 24 | 50.4 | 14.3 | – | – | – | – | –
Clone MN5 (VH domain) (VHH, Single-domain antibody: a VH domain from a synthetic phage library, not camelid; Expressed in E. coli) VHH: EVQLVESGGGLVQPGGSLRLSCAASGFTFSSYAMGWVRQAPGKGPEVVSLISGSGGSTWYDDSVKGRFTISRDNSKNTLYLQMNSLRAEDTAVYYCASREDNMTTWGQGTLVTVSS | 2.22 | 25.6 | 13.9 | 22.9 | 9.81 | – | – | – | – | –
MN7 VH-Fc protein (Fc fusion, VH domain fused to a human IgG1 Fc domain; not shown: human IgG1 Fc domain) EVQLVESGGGLVQPGGSLRLSCAASGFTFSSYAMGWVRQAPGKGPEVVSLISGSGGSTWYDDSVKGRFTISRDNSKNTLYLQMNSLRAEDTAVYYCASPEDMYQTWGQGTLVTVSS | – | – | – | – | – | 10.1 | 2.89 | 7.92 | 2.55 | –
Clone MN7 (VH domain) (VHH, Single-domain antibody: a VH domain from a synthetic phage library, not camelid; Expressed in E. coli) VHH: EVQLVESGGGLVQPGGSLRLSCAASGFTFSSYAMGWVRQAPGKGPEVVSLISGSGGSTWYDDSVKGRFTISRDNSKNTLYLQMNSLRAEDTAVYYCASPEDMYQTWGQGTLVTVSS | 2.23 | 14.8 | 5.38 | 11.8 | 4.49 | – | – | – | – | –
Clone MN8 (VH domain) (VHH, Single-domain antibody: a VH domain from a synthetic phage library, not camelid; Expressed in E. coli) VHH: EVQLVESGGGLVQPGGSLRLSCAASGFTFSSYAMGWVRQAPGKGPEVVSLISGSGGSTWYDDSVKGRFTISRDNSKNTLYLQMNSLRAEDTAVYYCASPEDAPSYSRWGQGTLVTVSS | 1.17 | 15.1 | 4.93 | 12.9 | 4.43 | – | – | – | – | –
MN1 VH-Fc protein (Fc fusion, VH domain fused to a human IgG1 Fc domain; not shown: human IgG1 Fc domain) EVQLVESGGGLVQPGGSLRLSCAASGFTFTAYDMGWVRQAPGKGPEWVSLISSDSGDTWYDDSVKGRFTISRDNSKNTLYLQMNSLRAEDTAVYYCARLGAYSTTYDYWGQGTLVTVSS | – | – | – | – | – | 134 | 49.9 | 101 | 42.1 | –
MN5 VH-Fc protein (Fc fusion, VH domain fused to a human IgG1 Fc domain; not shown: human IgG1 Fc domain) EVQLVESGGGLVQPGGSLRLSCAASGFTFSSYAMGWVRQAPGKGPEVVSLISGSGGSTWYDDSVKGRFTISRDNSKNTLYLQMNSLRAEDTAVYYCASREDNMTTWGQGTLVTVSS | – | – | – | – | – | 10.6 | 3.02 | 7.78 | 2.64 | –
MN8 VH-Fc protein (Fc fusion, VH domain fused to a human IgG1 Fc domain; not shown: human IgG1 Fc domain) EVQLVESGGGLVQPGGSLRLSCAASGFTFSSYAMGWVRQAPGKGPEVVSLISGSGGSTWYDDSVKGRFTISRDNSKNTLYLQMNSLRAEDTAVYYCASPEDAPSYSRWGQGTLVTVSS | – | – | – | – | – | 14 | 3.13 | 10.3 | 2.77 | –

Source: patent US20200299395A1 (MOGAM INSTITUTE FOR BIOMEDICAL RESEARCH, published 2020)
